In article PMC10853778 (Nucleic Acids Research, 2022):
Values belong to the molecule of their own block, whether it stands above or below them.

Columns and labels:
[1] = molecular target: HA-tagged human RTEL1 HHD1+2 deletion construct (human) (UniProt Q9NZ71); assay: co-IP; whole-cell extracts of HEK293T cells overexpressing HA-tagged RTEL1 constructs; IP overnight at 4°C (anti-HA), protein G agarose, immunoblot for RPA; with or without 100 units Benzonase
[2] = molecular target: T1, RPA 32C winged-helix domain (residues 172-270 of RPA32) (human, UniProt P15927 172-270); assay: NMR titration; 15N-labelled partner titrated with unlabelled partner; 1H-15N HSQC, 25°C, 20 mM Tris-HCl pH 7.4, 50 mM NaCl, 2 mM DTT, 0.02% NaN3; Kd and Koff from TITAN 2D lineshape analysis, two-state model; conditions: both partners purified
T1 construct: RPA32 (RPA2), human, residues 172-270 (winged-helix 32C domain); pET-15b; uniformly 15N-labelled where it was the observed partner; source: E. coli BL21(DE3) pLysS, purified (Ni-NTA, Q column, SEC); not shown: His6, N-terminal, kept
T1 sequence (P15927 172-270): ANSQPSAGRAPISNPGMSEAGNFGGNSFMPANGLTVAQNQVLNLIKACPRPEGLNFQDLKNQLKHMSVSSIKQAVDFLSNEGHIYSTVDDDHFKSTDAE

[3] = molecular target: T2, RTEL1 HHD2 (Homo sapiens, UniProt Q9NZ71-6 1056-1140); assay: NMR titration (TITAN); pH 6.5; NMR: 20 mM Tris-HCl pH 7.4, 50 mM NaCl, 2 mM DTT, 0.02% NaN3, 10% D2O, 25 C (one ssDNA-22 titration at pH 6.5); ITC: 10 mM potassium phosphate pH 6.5, 50 mM KCl, 0.02% NaN3, 25 C; conditions: protein: recombinant; tags: N-terminal 6xHis; single strand
T2 sequence: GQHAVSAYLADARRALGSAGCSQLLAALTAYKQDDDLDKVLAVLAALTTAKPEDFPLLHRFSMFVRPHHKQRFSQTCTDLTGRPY

[4] = molecular target: T3, RTEL1 HHD1 (Homo sapiens, UniProt Q9NZ71-6 886-978); assay: NMR titration; NMR: 20 mM Tris-HCl pH 7.4, 50 mM NaCl, 2 mM DTT, 0.02% NaN3, 10% D2O, 25 C (one ssDNA-22 titration at pH 6.5); ITC: 10 mM potassium phosphate pH 6.5, 50 mM KCl, 0.02% NaN3, 25 C; conditions: protein: recombinant; tags: N-terminal 6xHis; single strand
T3 sequence: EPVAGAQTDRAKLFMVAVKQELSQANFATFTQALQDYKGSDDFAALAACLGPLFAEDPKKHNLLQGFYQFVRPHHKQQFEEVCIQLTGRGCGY

[5] = molecular target: T2, RTEL1 HHD2; assay: NMR titration (TITAN); pH 7.4; NMR: 20 mM Tris-HCl pH 7.4, 50 mM NaCl, 2 mM DTT, 0.02% NaN3, 10% D2O, 25 C (one ssDNA-22 titration at pH 6.5); ITC: 10 mM potassium phosphate pH 6.5, 50 mM KCl, 0.02% NaN3, 25 C; conditions: protein: recombinant, tags: N-terminal 6xHis
[6] = molecular target: T2, RTEL1 HHD2; assay: ITC; pH 6.5; NMR: 20 mM Tris-HCl pH 7.4, 50 mM NaCl, 2 mM DTT, 0.02% NaN3, 10% D2O, 25 C (one ssDNA-22 titration at pH 6.5); ITC: 10 mM potassium phosphate pH 6.5, 50 mM KCl, 0.02% NaN3, 25 C; conditions: protein: recombinant, tags: N-terminal 6xHis
[7] = molecular target: T2, RTEL1 HHD2; assay: NMR titration; pH 7.4; NMR: 20 mM Tris-HCl pH 7.4, 50 mM NaCl, 2 mM DTT, 0.02% NaN3, 10% D2O, 25 C (one ssDNA-22 titration at pH 6.5); ITC: 10 mM potassium phosphate pH 6.5, 50 mM KCl, 0.02% NaN3, 25 C; conditions: protein: recombinant; tags: N-terminal 6xHis; single strand

- reduction of co-immunoprecipitated RPA against full-length HA-RTEL1 [1]: 80%
Molecule: endogenous replication protein A (RPA) of HEK293T cells (from UniProt P27694 1-616; P15927 1-270; P35244 1-121) (complex)

- Kd [2]: 360 µM
- koff [2]: 8460 s⁻¹
B1: RTEL1 harmonin homology domain 2 (residues 1056-1140) (domain or fragment, human, UniProt Q9NZ71-6 1056-1140, looked up)
chain: T2 sequence
notes: RTEL1, human, residues 1056-1140 (HHD2) of Uniprot Q9NZ71-6; uniformly 15N-labelled where it was the observed partner; also called HHD2; RTEL1 HHD2; source: E. coli Rosetta (DE3), purified (Ni-NTA, heparin, SEC); not shown: His6, N-terminal, kept

Molecule: AGGATTAGGATTAGGATTAGGA (ssDNA) [ssDNA-22]
- Kd [3]: 3.03 ± 0.64 µM
- binding result [4]: no binding
- Kd ([5]; single strand): 14.6 ± 1.21 µM
- Kd ([6]; single strand): 0.94 ± 0.13 µM

Molecule: TTAGGATTAGGA (ssDNA) [ssDNA-12]
- Kd ([6]; single strand): 1.51 ± 0.14 µM

Molecule: TTAGGCAGAGAGAGAGAGTTAGGC (ssDNA) [ssDNA-24]
- Kd ([6]; single strand): 1.32 ± 0.15 µM

B2: 3'ss_dsDNA-24 (mixed)
DNA 1: TTAGGCAGAGAGAGAGAGTTAGGC
DNA 2: CTCTCTCTCTCTGCCTAA
- Kd ([6]; 3' overhang 6 nt (strand 1)): 1.22 ± 0.09 µM

B3: dsDNA-22 (dsDNA)
DNA 1: AGGATTAGGATTAGGATTAGGA
DNA 2: TCCTAATCCTAATCCTAATCCT
- Kd ([5]; blunt): 19.7 ± 4.67 µM

B4: 5'ss_dsDNA-24 (mixed)
DNA 1: TTAGGCAGAGAGAGAGAGTTAGGC
DNA 2: GCCTAACTCTCTCTCTCT
- Kd ([6]; 5' overhang 6 nt (strand 1)): 2.58 ± 0.27 µM

B5: dsDNA-24 (dsDNA)
DNA 1: TTAGGCAGAGAGAGAGAGTTAGGC
DNA 2: GCCTAACTCTCTCTCTCTGCCTAA
- Kd ([6]; blunt): 1.95 ± 0.31 µM

Molecule: TTAGGA (ssDNA) [ssDNA-6]
- binding result [7]: no binding
